This is an account of results in patent US20200270325A1 (Merck Sharp & Dohme, published 2020).

Numbered stars: 1 amine (or outer) side, 2 acyl side, 3 side chain; on linkers, the order of the positions; unused ones are H or OH. Square brackets hold non-standard residues; d marks the D form. Side chains are listed from the residue outwards. Ends that are not written are not given here. * marks the point of attachment. C18 diacid = O=C(O)CCCCCCCCCCCCCCCCC(=O)*; C16 diacid = O=C(O)CCCCCCCCCCCCCCC(=O)*; γGlu = O=C(O)[C@H](CCC(=O)[*:2])N[*:1]; Met(O2) = CS(=O)(=O)CC[C@H](N)C(=O)O; αMeD = C[C@](N)(CC(=O)O)C(=O)O; AEEA = NCCOCCOCC(=O)O; Aib = CC(C)(N)C(=O)O

First the molecules themselves.
B1: TP597 (peptide)
peptide: H[Aib]QGTFTSDYSKLLDARAAK([AEEA-AEEA-γGlu-C18 diacid])DFVQWL[Met(O2)]DT-NH2
modifications: N-terminus assumed
SMILES: CC(C)C[C@H](NC(=O)[C@H](CC(C)C)NC(=O)[C@H](CCCCN)NC(=O)[C@H](CO)NC(=O)[C@H](Cc1ccc(O)cc1)NC(=O)[C@H](CC(=O)O)NC(=O)[C@H](CO)NC(=O)[C@@H](NC(=O)[C@H](Cc1ccccc1)NC(=O)[C@@H](NC(=O)CNC(=O)[C@H](CCC(N)=O)NC(=O)C(C)(C)NC(=O)[C@@H](N)Cc1c[nH]cn1)[C@@H](C)O)[C@@H](C)O)C(=O)N[C@@H](CC(=O)O)C(=O)N[C@@H](C)C(=O)N[C@@H](CCCNC(=N)N)C(=O)N[C@@H](C)C(=O)N[C@@H](C)C(=O)N[C@@H](CCCCNC(=O)COCCOCCNC(=O)COCCOCCNC(=O)CC[C@H](NC(=O)CCCCCCCCCCCCCCCCC(=O)O)C(=O)O)C(=O)N[C@@H](CC(=O)O)C(=O)N[C@@H](Cc1ccccc1)C(=O)N[C@H](C(=O)N[C@@H](CCC(N)=O)C(=O)N[C@@H](Cc1c[nH]c2ccccc12)C(=O)N[C@@H](CC(C)C)C(=O)N[C@@H](CCS(C)(=O)=O)C(=O)N[C@@H](CC(=O)O)C(=O)N[C@H](C(N)=O)[C@@H](C)O)C(C)C
B2: TP589 (peptide)
peptide: H[Aib]QGTFTSDYSKYLDERAAK([AEEA-AEEA-γGlu-C20‑OH])DFVQWL[Met(O2)][αMeD]T-NH2
B3: TP825 (peptide)
peptide: H[Aib]QGTFTSDYSKYLDARAAQK([AEEA-AEEA-γGlu-C16 diacid])FVQWL[Met(O2)]ET-NH2
modifications: N-terminus assumed
SMILES: CC(C)C[C@H](NC(=O)[C@H](Cc1ccc(O)cc1)NC(=O)[C@H](CCCCN)NC(=O)[C@H](CO)NC(=O)[C@H](Cc1ccc(O)cc1)NC(=O)[C@H](CC(=O)O)NC(=O)[C@H](CO)NC(=O)[C@@H](NC(=O)[C@H](Cc1ccccc1)NC(=O)[C@@H](NC(=O)CNC(=O)[C@H](CCC(N)=O)NC(=O)C(C)(C)NC(=O)[C@@H](N)Cc1c[nH]cn1)[C@@H](C)O)[C@@H](C)O)C(=O)N[C@@H](CC(=O)O)C(=O)N[C@@H](C)C(=O)N[C@@H](CCCNC(=N)N)C(=O)N[C@@H](C)C(=O)N[C@@H](C)C(=O)N[C@@H](CCC(N)=O)C(=O)N[C@@H](CCCCNC(=O)COCCOCCNC(=O)COCCOCCNC(=O)CC[C@H](NC(=O)CCCCCCCCCCCCCCC(=O)O)C(=O)O)C(=O)N[C@@H](Cc1ccccc1)C(=O)N[C@H](C(=O)N[C@@H](CCC(N)=O)C(=O)N[C@@H](Cc1c[nH]c2ccccc12)C(=O)N[C@@H](CC(C)C)C(=O)N[C@@H](CCS(C)(=O)=O)C(=O)N[C@@H](CCC(=O)O)C(=O)N[C@H](C(N)=O)[C@@H](C)O)C(C)C
B4: TP815 (peptide)
peptide: H[Aib]QGTFTSDYSKYLD[Aib]RAAQDFVK([AEEA-AEEA-γGlu-C16 diacid])WL[Met(O2)]ET-NH2
modifications: N-terminus assumed
SMILES: CC(C)C[C@H](NC(=O)[C@H](Cc1c[nH]c2ccccc12)NC(=O)[C@H](CCCCNC(=O)COCCOCCNC(=O)COCCOCCNC(=O)CC[C@H](NC(=O)CCCCCCCCCCCCCCC(=O)O)C(=O)O)NC(=O)[C@@H](NC(=O)[C@H](Cc1ccccc1)NC(=O)[C@H](CC(=O)O)NC(=O)[C@H](CCC(N)=O)NC(=O)[C@H](C)NC(=O)[C@H](C)NC(=O)[C@H](CCCNC(=N)N)NC(=O)C(C)(C)NC(=O)[C@H](CC(=O)O)NC(=O)[C@H](CC(C)C)NC(=O)[C@H](Cc1ccc(O)cc1)NC(=O)[C@H](CCCCN)NC(=O)[C@H](CO)NC(=O)[C@H](Cc1ccc(O)cc1)NC(=O)[C@H](CC(=O)O)NC(=O)[C@H](CO)NC(=O)[C@@H](NC(=O)[C@H](Cc1ccccc1)NC(=O)[C@@H](NC(=O)CNC(=O)[C@H](CCC(N)=O)NC(=O)C(C)(C)NC(=O)[C@@H](N)Cc1c[nH]cn1)[C@@H](C)O)[C@@H](C)O)C(C)C)C(=O)N[C@@H](CCS(C)(=O)=O)C(=O)N[C@@H](CCC(=O)O)C(=O)N[C@H](C(N)=O)[C@@H](C)O
B5: TP828 (peptide)
peptide: H[Aib]QGTFTSDYSKYLD[Aib]RAAQDFVK([AEEA-AEEA-γGlu-C16 diacid])WL[Met(O2)][γGlu]T-NH2
modifications: N-terminus assumed
SMILES: CC(C)C[C@H](NC(=O)[C@H](Cc1c[nH]c2ccccc12)NC(=O)[C@H](CCCCNC(=O)COCCOCCNC(=O)COCCOCCNC(=O)CC[C@H](NC(=O)CCCCCCCCCCCCCCC(=O)O)C(=O)O)NC(=O)[C@@H](NC(=O)[C@H](Cc1ccccc1)NC(=O)[C@H](CC(=O)O)NC(=O)[C@H](CCC(N)=O)NC(=O)[C@H](C)NC(=O)[C@H](C)NC(=O)[C@H](CCCNC(=N)N)NC(=O)C(C)(C)NC(=O)[C@H](CC(=O)O)NC(=O)[C@H](CC(C)C)NC(=O)[C@H](Cc1ccc(O)cc1)NC(=O)[C@H](CCCCN)NC(=O)[C@H](CO)NC(=O)[C@H](Cc1ccc(O)cc1)NC(=O)[C@H](CC(=O)O)NC(=O)[C@H](CO)NC(=O)[C@@H](NC(=O)[C@H](Cc1ccccc1)NC(=O)[C@@H](NC(=O)CNC(=O)[C@H](CCC(N)=O)NC(=O)C(C)(C)NC(=O)[C@@H](N)Cc1c[nH]cn1)[C@@H](C)O)[C@@H](C)O)C(C)C)C(=O)N[C@@H](CCS(C)(=O)=O)C(=O)N[C@@H](CCC(=O)N[C@H](C(N)=O)[C@@H](C)O)C(=O)O
B6: TP575 (peptide)
peptide: H[Aib]QGTFTSDYSKYLD[Aib]RAAQDFVK([AEEA-AEEA-γGlu-C18 diacid])WL[Met(O2)]DT-NH2
modifications: N-terminus assumed
SMILES: CC(C)C[C@H](NC(=O)[C@H](Cc1c[nH]c2ccccc12)NC(=O)[C@H](CCCCNC(=O)COCCOCCNC(=O)COCCOCCNC(=O)CC[C@H](NC(=O)CCCCCCCCCCCCCCCCC(=O)O)C(=O)O)NC(=O)[C@@H](NC(=O)[C@H](Cc1ccccc1)NC(=O)[C@H](CC(=O)O)NC(=O)[C@H](CCC(N)=O)NC(=O)[C@H](C)NC(=O)[C@H](C)NC(=O)[C@H](CCCNC(=N)N)NC(=O)C(C)(C)NC(=O)[C@H](CC(=O)O)NC(=O)[C@H](CC(C)C)NC(=O)[C@H](Cc1ccc(O)cc1)NC(=O)[C@H](CCCCN)NC(=O)[C@H](CO)NC(=O)[C@H](Cc1ccc(O)cc1)NC(=O)[C@H](CC(=O)O)NC(=O)[C@H](CO)NC(=O)[C@@H](NC(=O)[C@H](Cc1ccccc1)NC(=O)[C@@H](NC(=O)CNC(=O)[C@H](CCC(N)=O)NC(=O)C(C)(C)NC(=O)[C@@H](N)Cc1c[nH]cn1)[C@@H](C)O)[C@@H](C)O)C(C)C)C(=O)N[C@@H](CCS(C)(=O)=O)C(=O)N[C@@H](CC(=O)O)C(=O)N[C@H](C(N)=O)[C@@H](C)O
B7: TP826 (peptide)
peptide: H[Aib]QGTFTSDYSKYLDARAAK([AEEA-AEEA-γGlu-C16 diacid])DFVQWL[Met(O2)][γGlu]T-NH2
modifications: N-terminus assumed
SMILES: CC(C)C[C@H](NC(=O)[C@H](Cc1ccc(O)cc1)NC(=O)[C@H](CCCCN)NC(=O)[C@H](CO)NC(=O)[C@H](Cc1ccc(O)cc1)NC(=O)[C@H](CC(=O)O)NC(=O)[C@H](CO)NC(=O)[C@@H](NC(=O)[C@H](Cc1ccccc1)NC(=O)[C@@H](NC(=O)CNC(=O)[C@H](CCC(N)=O)NC(=O)C(C)(C)NC(=O)[C@@H](N)Cc1c[nH]cn1)[C@@H](C)O)[C@@H](C)O)C(=O)N[C@@H](CC(=O)O)C(=O)N[C@@H](C)C(=O)N[C@@H](CCCNC(=N)N)C(=O)N[C@@H](C)C(=O)N[C@@H](C)C(=O)N[C@@H](CCCCNC(=O)COCCOCCNC(=O)COCCOCCNC(=O)CC[C@H](NC(=O)CCCCCCCCCCCCCCC(=O)O)C(=O)O)C(=O)N[C@@H](CC(=O)O)C(=O)N[C@@H](Cc1ccccc1)C(=O)N[C@H](C(=O)N[C@@H](CCC(N)=O)C(=O)N[C@@H](Cc1c[nH]c2ccccc12)C(=O)N[C@@H](CC(C)C)C(=O)N[C@@H](CCS(C)(=O)=O)C(=O)N[C@@H](CCC(=O)N[C@H](C(N)=O)[C@@H](C)O)C(=O)O)C(C)C
B8: TP564 (peptide)
peptide: H[Aib]QGTFTSDYSKYLD[Aib]RAAK([AEEA-AEEA-γGlu-C20‑OH])DFVQWL[Met(O2)]DT-NH2
B9: TP827 (peptide)
peptide: H[Aib]QGTFTSDYSKYLDARAAQK([AEEA-AEEA-γGlu-C16 diacid])FVQWL[Met(O2)][γGlu]T-NH2
modifications: N-terminus assumed
SMILES: CC(C)C[C@H](NC(=O)[C@H](Cc1ccc(O)cc1)NC(=O)[C@H](CCCCN)NC(=O)[C@H](CO)NC(=O)[C@H](Cc1ccc(O)cc1)NC(=O)[C@H](CC(=O)O)NC(=O)[C@H](CO)NC(=O)[C@@H](NC(=O)[C@H](Cc1ccccc1)NC(=O)[C@@H](NC(=O)CNC(=O)[C@H](CCC(N)=O)NC(=O)C(C)(C)NC(=O)[C@@H](N)Cc1c[nH]cn1)[C@@H](C)O)[C@@H](C)O)C(=O)N[C@@H](CC(=O)O)C(=O)N[C@@H](C)C(=O)N[C@@H](CCCNC(=N)N)C(=O)N[C@@H](C)C(=O)N[C@@H](C)C(=O)N[C@@H](CCC(N)=O)C(=O)N[C@@H](CCCCNC(=O)COCCOCCNC(=O)COCCOCCNC(=O)CC[C@H](NC(=O)CCCCCCCCCCCCCCC(=O)O)C(=O)O)C(=O)N[C@@H](Cc1ccccc1)C(=O)N[C@H](C(=O)N[C@@H](CCC(N)=O)C(=O)N[C@@H](Cc1c[nH]c2ccccc12)C(=O)N[C@@H](CC(C)C)C(=O)N[C@@H](CCS(C)(=O)=O)C(=O)N[C@@H](CCC(=O)N[C@H](C(N)=O)[C@@H](C)O)C(=O)O)C(C)C

The first assay has as its target human GLP-1 receptor (GLP1R) (human, UniProt P43220 24-463). Put plainly: cell-based or functional assay.
On to B1, for which the “GLP1R EC50 human” value amounted to 0.61 nM.

For B2, the “GLP1R EC50 human” value turned out to be 2.07 nM.

On to B3, for which the “GLP1R EC50 human” value is 0.036 nM.

B4: the “GLP1R EC50 human” value is 0.12 nM.

On to B5, for which the “GLP1R EC50 human” value was 0.587 nM.

Consider B6, for which the “GLP1R EC50 human” value turned out to be 0.866 nM.

Take B7: the “GLP1R EC50 human” value stood at 0.253 nM.

On to B8, for which the “GLP1R EC50 human” value was 1.22 nM.

Regarding B9, the “GLP1R EC50 human” value is 0.081 nM.

The target in a further assay is human Glucagon receptor (GCGR) (human, UniProt P47871 26-477). Put plainly: cell-based or functional assay.
human Glucagon receptor (GCGR), sequence (P47871 26-477): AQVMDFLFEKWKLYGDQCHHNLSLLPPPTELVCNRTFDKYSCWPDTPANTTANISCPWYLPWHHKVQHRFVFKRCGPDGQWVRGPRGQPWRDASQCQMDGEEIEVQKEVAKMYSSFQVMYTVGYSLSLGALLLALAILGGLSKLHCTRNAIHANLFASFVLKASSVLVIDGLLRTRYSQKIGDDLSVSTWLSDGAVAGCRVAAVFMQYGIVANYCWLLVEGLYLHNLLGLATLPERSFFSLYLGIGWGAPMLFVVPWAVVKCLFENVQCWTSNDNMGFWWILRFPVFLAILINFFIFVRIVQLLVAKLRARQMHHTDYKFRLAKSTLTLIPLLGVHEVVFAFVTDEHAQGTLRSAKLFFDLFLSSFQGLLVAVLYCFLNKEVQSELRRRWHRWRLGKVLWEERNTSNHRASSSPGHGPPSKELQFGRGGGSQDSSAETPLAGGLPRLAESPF
Turning to B1, the “GCGR EC50 human” value came to 0.74 nM.

For B2, the “GCGR EC50 human” value came out at 19.8 nM.

With B3, the “GCGR EC50 human” value came to 0.07 nM.

In the case of B4, the “GCGR EC50 human” value came to 0.084 nM.

On to B5, for which the “GCGR EC50 human” value stood at 0.228 nM.

As to B6, the “GCGR EC50 human” value came out at 0.595 nM.

Regarding B7, the “GCGR EC50 human” value is 0.67 nM.

In the case of B8, the “GCGR EC50 human” value worked out at 1.25 nM.

Take B9: the “GCGR EC50 human” value came to 0.133 nM.
